Data reported in the supplement of paper PMC7877785.
± gives the uncertainty stated by the source.

Assay: self-splicing fitness, log relative to wild type (ln ratio); higher = more splicing; Tetrahymena group I intron in knt gene, E. coli kanamycin selection, DiMSum; sequences stand for … in CUCUCU…GGAGGGAAAAGUUAUCAGGCAUGCACCUGGUAGCUAGUCUUUAAACCAAUAGAUUGCAUCGGUUUAAAAGGCAAGACCGUCAAAUUGCGGGAAAGGGGUCAACAGCCGUUCAGUACCAAGUCUCAGGGGAAACUUUGAGAUGGCCUUGCAAAGGGUAUGGUAAUAAGCUGACGGACAUGGUCCUAACCACGCAGCCAAGUCCUAAGUCAACAGAUCUUCUGUUGAUAUGGAUGCAGUUCACAGACUAAAUGUCGGUCGGGGAAGAUGUAUUCUUCUCAUAAGAUAUAGUCGGACCUCUCCUUAAUGGGAGCUAGCGGAUGAAGUGAUGCAACACUGGAGCCGCUGGGAACUAAUUUGUAUGCGAAAGUAUAUUGAUUAGUUUUGGAGUACUCGUGGUCG
Summary of the method: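 Fitness was computed with DiMSum as the error-weighted combination of replicate fold changes, kanamycin versus none, each normalised to wild type. The library randomised all eight intron nucleotides of the P1ex region, with the intron placed in the knt kanamycin-resistance gene on pET-22b(+) in E. coli BL21(DE3). Six replicate transformations were grown overnight at 37°C or 30°C on LB agar with or without 25 μg/mL kanamycin, plus 100 μg/mL carbenicillin, 50 μM IPTG and 0.2% rhamnose. Pooled colonies were amplicon-sequenced on an Illumina HiSeq 2500.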

CUCAAGCAAUAUUACGAUUG
self-splicing fitness (ln) (30 °C): -3.85 ± 0.18
self-splicing fitness (ln) (37 °C): -2.5 ± 0.17

CUCAAGCAAUAUUACGCAAA
self-splicing fitness (ln) (30 °C): -3.82 ± 0.31
self-splicing fitness (ln) (37 °C): -2.47 ± 0.25

CUCAAGCAAUAUUACGCAAC
self-splicing fitness (ln) (30 °C): -2.65 ± 0.36

CUCAAGCAAUAUUACGCAUG
self-splicing fitness (ln) (30 °C): -4.22 ± 0.36
self-splicing fitness (ln) (37 °C): -1.65 ± 0.18

CUCAAGCAAUAUUACGCCAU
self-splicing fitness (ln) (37 °C): -1.99 ± 0.37

CUCAAGCAAUAUUACGCCCU
self-splicing fitness (ln) (30 °C): -3.13 ± 0.44
self-splicing fitness (ln) (37 °C): -1.36 ± 0.36

CUCAAGCAAUAUUACGCCUC
self-splicing fitness (ln) (30 °C): -2.98 ± 0.14
self-splicing fitness (ln) (37 °C): -2.97 ± 0.28

CUCAAGCAAUAUUACGCUGG
self-splicing fitness (ln) (30 °C): -3.19 ± 0.15
self-splicing fitness (ln) (37 °C): -2.62 ± 0.23

CUCAAGCAAUAUUACGCUUC
self-splicing fitness (ln) (30 °C): -2.35 ± 0.26
self-splicing fitness (ln) (37 °C): -2.7 ± 0.26

CUCAAGCAAUAUUACGGAAC
self-splicing fitness (ln) (30 °C): -4.26 ± 0.42
self-splicing fitness (ln) (37 °C): -2.46 ± 0.3

CUCAAGCAAUAUUACGGCUG
self-splicing fitness (ln) (30 °C): -3.41 ± 0.26
self-splicing fitness (ln) (37 °C): -2.57 ± 0.27

CUCAAGCAAUAUUACGGGGA
self-splicing fitness (ln) (30 °C): -2.01 ± 0.15
self-splicing fitness (ln) (37 °C): -1.33 ± 0.17

CUCAAGCAAUAUUACGGUCA
self-splicing fitness (ln) (30 °C): -3.19 ± 0.2
self-splicing fitness (ln) (37 °C): -2.35 ± 0.2

CUCAAGCAAUAUUACGGUCC
self-splicing fitness (ln) (30 °C): -3.02 ± 0.22
self-splicing fitness (ln) (37 °C): 0.396 ± 0.18

CUCAAGCAAUAUUACGGUCG
self-splicing fitness (ln) (30 °C): -1.96 ± 0.098
self-splicing fitness (ln) (37 °C): -1.19 ± 0.12

CUCAAGCAAUAUUACGUAAU
self-splicing fitness (ln) (30 °C): -3.29 ± 0.12
self-splicing fitness (ln) (37 °C): -2.22 ± 0.1

CUCAAGCAAUAUUACGUAUU
self-splicing fitness (ln) (30 °C): -3.74 ± 0.19
self-splicing fitness (ln) (37 °C): -2.58 ± 0.21

CUCAAGCAAUAUUACGUCUC
self-splicing fitness (ln) (30 °C): -4.33 ± 0.39
self-splicing fitness (ln) (37 °C): -0.263 ± 0.2

CUCAAGCAAUAUUACGUGUA
self-splicing fitness (ln) (30 °C): -2.47 ± 0.13
self-splicing fitness (ln) (37 °C): -1.91 ± 0.11

CUCAAGCAAUAUUACGUUUC
self-splicing fitness (ln) (30 °C): -4.05 ± 0.24
self-splicing fitness (ln) (37 °C): -3.83 ± 0.37

CUCCAGCAAUAUUACGAACU
self-splicing fitness (ln) (30 °C): -2.92 ± 0.33
self-splicing fitness (ln) (37 °C): -1.12 ± 0.29

CUCCAGCAAUAUUACGAAGA
self-splicing fitness (ln) (37 °C): -3.41 ± 0.42

CUCCAGCAAUAUUACGAAUG
self-splicing fitness (ln) (30 °C): -1.39 ± 0.083
self-splicing fitness (ln) (37 °C): -0.438 ± 0.11

CUCCAGCAAUAUUACGAGCG
self-splicing fitness (ln) (30 °C): -2.95 ± 0.16
self-splicing fitness (ln) (37 °C): -2.56 ± 0.23

CUCCAGCAAUAUUACGAGCU
self-splicing fitness (ln) (30 °C): -4.01 ± 0.28
self-splicing fitness (ln) (37 °C): -2.44 ± 0.23

CUCCAGCAAUAUUACGAGGU
self-splicing fitness (ln) (30 °C): -4.41 ± 0.31
self-splicing fitness (ln) (37 °C): -3.07 ± 0.24

CUCCAGCAAUAUUACGAUAA
self-splicing fitness (ln) (30 °C): -3.22 ± 0.16
self-splicing fitness (ln) (37 °C): -2.41 ± 0.18

CUCCAGCAAUAUUACGAUAG
self-splicing fitness (ln) (30 °C): -1.6 ± 0.079
self-splicing fitness (ln) (37 °C): -0.825 ± 0.1

CUCCAGCAAUAUUACGAUUG
self-splicing fitness (ln) (30 °C): -1.53 ± 0.078
self-splicing fitness (ln) (37 °C): -0.899 ± 0.11

CUCCAGCAAUAUUACGCCCG
self-splicing fitness (ln) (30 °C): -2.56 ± 0.17
self-splicing fitness (ln) (37 °C): -0.904 ± 0.19

CUCCAGCAAUAUUACGCCGG
self-splicing fitness (ln) (30 °C): -3.83 ± 0.26
self-splicing fitness (ln) (37 °C): -2.98 ± 0.24

CUCCAGCAAUAUUACGCCGU
self-splicing fitness (ln) (30 °C): -3.6 ± 0.3
self-splicing fitness (ln) (37 °C): -3.11 ± 0.35

CUCCAGCAAUAUUACGCCUA
self-splicing fitness (ln) (30 °C): -2.87 ± 0.2
self-splicing fitness (ln) (37 °C): -1.94 ± 0.2

CUCCAGCAAUAUUACGCUCG
self-splicing fitness (ln) (30 °C): -3.69 ± 0.27
self-splicing fitness (ln) (37 °C): -2.36 ± 0.39

CUCCAGCAAUAUUACGCUGC
self-splicing fitness (ln) (30 °C): -3.32 ± 0.15
self-splicing fitness (ln) (37 °C): -2.07 ± 0.21

CUCCAGCAAUAUUACGGCAC
self-splicing fitness (ln) (30 °C): -3.68 ± 0.23
self-splicing fitness (ln) (37 °C): -3.27 ± 0.47

CUCCAGCAAUAUUACGGCGA
self-splicing fitness (ln) (30 °C): -2.16 ± 0.22
self-splicing fitness (ln) (37 °C): -1.6 ± 0.2

CUCCAGCAAUAUUACGGUCG
self-splicing fitness (ln) (30 °C): -0.742 ± 0.054
self-splicing fitness (ln) (37 °C): -0.679 ± 0.071

CUCCAGCAAUAUUACGUCCG
self-splicing fitness (ln) (30 °C): -2.63 ± 0.11
self-splicing fitness (ln) (37 °C): -1.73 ± 0.12

CUCCAGCAAUAUUACGUGAC
self-splicing fitness (ln) (30 °C): -3.38 ± 0.15
self-splicing fitness (ln) (37 °C): -2.98 ± 0.3

CUCCAGCAAUAUUACGUGCC
self-splicing fitness (ln) (30 °C): -3.68 ± 0.33
self-splicing fitness (ln) (37 °C): -0.249 ± 0.27

CUCGAGCAAUAUUACGAAAU
self-splicing fitness (ln) (30 °C): -3.36 ± 0.42
self-splicing fitness (ln) (37 °C): -2.38 ± 0.27

CUCGAGCAAUAUUACGAAGU
self-splicing fitness (ln) (30 °C): -3.64 ± 0.43
self-splicing fitness (ln) (37 °C): -1.84 ± 0.35

CUCGAGCAAUAUUACGACGA
self-splicing fitness (ln) (30 °C): -2.5 ± 0.24
self-splicing fitness (ln) (37 °C): -1.26 ± 0.29

CUCGAGCAAUAUUACGACUG
self-splicing fitness (ln) (30 °C): -1.28 ± 0.1
self-splicing fitness (ln) (37 °C): -0.299 ± 0.15

CUCGAGCAAUAUUACGAGCC
self-splicing fitness (ln) (37 °C): -1.68 ± 0.2

CUCGAGCAAUAUUACGAGCU
self-splicing fitness (ln) (30 °C): -3.85 ± 0.32

CUCGAGCAAUAUUACGAGUA
self-splicing fitness (ln) (30 °C): -2.77 ± 0.24
self-splicing fitness (ln) (37 °C): -2.75 ± 0.31

CUCGAGCAAUAUUACGAGUC
self-splicing fitness (ln) (30 °C): -3.52 ± 0.32
self-splicing fitness (ln) (37 °C): -2.53 ± 0.2

CUCGAGCAAUAUUACGCAGU
self-splicing fitness (ln) (30 °C): -2.06 ± 0.12
self-splicing fitness (ln) (37 °C): -2.83 ± 0.25

CUCGAGCAAUAUUACGCCUA
self-splicing fitness (ln) (37 °C): -0.858 ± 0.46

CUCGAGCAAUAUUACGCGCG
self-splicing fitness (ln) (30 °C): -2.81 ± 0.27
self-splicing fitness (ln) (37 °C): -1.48 ± 0.32

CUCGAGCAAUAUUACGCGGC
self-splicing fitness (ln) (30 °C): -3.35 ± 0.47
self-splicing fitness (ln) (37 °C): -3.16 ± 0.4

CUCGAGCAAUAUUACGCGGU
self-splicing fitness (ln) (30 °C): -4.23 ± 0.46
self-splicing fitness (ln) (37 °C): -1.97 ± 0.27

CUCGAGCAAUAUUACGCUAC
self-splicing fitness (ln) (30 °C): -0.697 ± 0.2

CUCGAGCAAUAUUACGCUGU
self-splicing fitness (ln) (37 °C): -2.66 ± 0.44

CUCGAGCAAUAUUACGGACU
self-splicing fitness (ln) (30 °C): -2.35 ± 0.19
self-splicing fitness (ln) (37 °C): -1.95 ± 0.26

CUCGAGCAAUAUUACGGCGA
self-splicing fitness (ln) (30 °C): -3.88 ± 0.46
self-splicing fitness (ln) (37 °C): -2.61 ± 0.36

CUCGAGCAAUAUUACGGCUG
self-splicing fitness (ln) (30 °C): -3.82 ± 0.42
self-splicing fitness (ln) (37 °C): -1.94 ± 0.29

CUCGAGCAAUAUUACGUAAA
self-splicing fitness (ln) (30 °C): -3.8 ± 0.34

CUCGAGCAAUAUUACGUAGG
self-splicing fitness (ln) (30 °C): -1.11 ± 0.11
self-splicing fitness (ln) (37 °C): -0.804 ± 0.15

CUCGAGCAAUAUUACGUAGU
self-splicing fitness (ln) (30 °C): -3.91 ± 0.26
self-splicing fitness (ln) (37 °C): -2.18 ± 0.21

CUCGAGCAAUAUUACGUGUA
self-splicing fitness (ln) (30 °C): -2.89 ± 0.12
self-splicing fitness (ln) (37 °C): -3.35 ± 0.22

CUCUAGCAAUAUUACGACCU
self-splicing fitness (ln) (30 °C): -2.94 ± 0.3

CUCUAGCAAUAUUACGAGGA
self-splicing fitness (ln) (30 °C): -2.32 ± 0.19
self-splicing fitness (ln) (37 °C): -1.59 ± 0.17

CUCUAGCAAUAUUACGAGUG
self-splicing fitness (ln) (30 °C): -1.62 ± 0.14
self-splicing fitness (ln) (37 °C): -1.09 ± 0.15

CUCUAGCAAUAUUACGCAGG
self-splicing fitness (ln) (30 °C): -3.35 ± 0.26
self-splicing fitness (ln) (37 °C): -3.04 ± 0.47

CUCUAGCAAUAUUACGCAUC
self-splicing fitness (ln) (37 °C): -2.64 ± 0.36

CUCUAGCAAUAUUACGCCGG
self-splicing fitness (ln) (30 °C): -2.98 ± 0.31
self-splicing fitness (ln) (37 °C): -1.92 ± 0.45

CUCUAGCAAUAUUACGCGGU
self-splicing fitness (ln) (30 °C): -3.25 ± 0.26
self-splicing fitness (ln) (37 °C): -2.59 ± 0.29

CUCUAGCAAUAUUACGCGUA
self-splicing fitness (ln) (30 °C): -4.1 ± 0.27
self-splicing fitness (ln) (37 °C): -3.32 ± 0.24

CUCUAGCAAUAUUACGCGUG
self-splicing fitness (ln) (30 °C): -3.84 ± 0.22
self-splicing fitness (ln) (37 °C): -3.01 ± 0.19

CUCUAGCAAUAUUACGCUAA
self-splicing fitness (ln) (30 °C): -2.65 ± 0.35
self-splicing fitness (ln) (37 °C): -2.26 ± 0.4

CUCUAGCAAUAUUACGCUCG
self-splicing fitness (ln) (30 °C): -3.05 ± 0.25
self-splicing fitness (ln) (37 °C): -1.68 ± 0.23

CUCUAGCAAUAUUACGGAUA
self-splicing fitness (ln) (30 °C): -3.57 ± 0.24
self-splicing fitness (ln) (37 °C): -2.71 ± 0.22

CUCUAGCAAUAUUACGGGAC
self-splicing fitness (ln) (30 °C): -2.77 ± 0.19
self-splicing fitness (ln) (37 °C): -3.65 ± 0.46

CUCUAGCAAUAUUACGGGUC
self-splicing fitness (ln) (30 °C): -5.03 ± 0.34
self-splicing fitness (ln) (37 °C): -2.21 ± 0.18

CUCUAGCAAUAUUACGGUAA
self-splicing fitness (ln) (30 °C): -2.38 ± 0.24
self-splicing fitness (ln) (37 °C): -2.14 ± 0.21

CUCUAGCAAUAUUACGUACG
self-splicing fitness (ln) (30 °C): -2.5 ± 0.23
self-splicing fitness (ln) (37 °C): -1.4 ± 0.17
